{
  "source": "patent US6413730",
  "biological_target": "T1, GST-hElk-L cytoplasmic domain fusion protein (GST-Elk-L cyt) (UniProt P98172)",
  "T1 sequence": "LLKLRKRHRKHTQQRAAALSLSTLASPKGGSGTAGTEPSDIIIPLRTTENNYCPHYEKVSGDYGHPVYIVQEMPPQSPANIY",
  "data": [
    {"substance": "v-Src", "values": [
      {"measurement": "in vitro kinase assay with 32P-gamma-ATP, autoradiography", "result": "A GST fusion protein containing the cytoplasmic domain of human Elk-L (residues 262-343) was tyrosine phosphorylated by v-Src in vitro"}
    ]}
  ]
}
